Source: publication PMC5603524, “An alternate mode of oligomerization for E. coli SecA” (Scientific Reports, 2017)
Values joined by “and” are separate entries in the source; they are usually repeats but may differ in a detail not shown here. Equal entries are not always repeated.

B1: SecA-N95 (domain or fragment, E. coli, UniProt P10408 1-835, looked up)
chain: MLIKLLTKVFGSRNDRTLRRMRKVVNIINAMEPEMEKLSDEELKGKTAEFRARLEKGEVLENLIPEAFAVVREASKRVFGMRHFDVQLLGGMVLNERCIAEMRTGEGKTLTATLPAYLNALTGKGVHVVTVNDYLAQRDAENNRPLFEFLGLTVGINLPGMPAPAKREAYAADITYGTNNEYGFDYLRDNMAFSPEERVQRKLHYALVDEVDSILIDEARTPLIISGPAEDSSEMYKRVNKIIPHLIRQEKEDSETFQGEGHFSVDEKSRQVNLTERGLVLIEELLVKEGIMDEGESLYSPANIMLMHHVTAALRAHALFTRDVDYIVKDGEVIIVDEHTGRTMQGRRWSDGLHQAVEAKEGVQIQNENQTLASITFQNYFRLYEKLAGMTGTADTEAFEFSSIYKLDTVVVPTNRPMIRKDLPDLVYMTEAEKIQAIIEDIKERTAKGQPVLVGTISIEKSELVSNELTKAGIKHNVLNAKFHANEAAIVAQAGYPAAVTIATNMAGRGTDIVLGGSWQAEVAALENPTAEQIEKIKADWQVRHDAVLEAGGLHIIGTERHESRRIDNQLRGRSGRQGDAGSSRFYLSMEDALMRIFASDRVSGMMRKLGMKPGEAIEHPWVTKAIANAQRKVESRNFDIRKQLLEYDDVANDQRRAIYSQRNELLDVSDVSETINSIREDVFKATIDAYIPPQSLEEMWDIPGLQERLKNDFDLDLPIAEWLDKEPELHEETLRERILAQSIEVYQRKEEVVGAEMMRHFEKGVMLQTLDSLWKEHLAAMDYLRQGIHLRGYAQKDPKQEYKRESFSMFAAMLESLKYEVISTLSKVQVRMPE
notes: SecA, E. coli, truncated at residue 835 (stop codon after residue 835); source: E. coli BL21(DE3), purified (ammonium sulfate, PhenylSepharose, Cibacron Blue Sepharose, MonoQ)
B2: SecA-N95ΔN (domain or fragment, E. coli, UniProt P10408 15-835, looked up)
chain: DRTLRRMRKVVNIINAMEPEMEKLSDEELKGKTAEFRARLEKGEVLENLIPEAFAVVREASKRVFGMRHFDVQLLGGMVLNERCIAEMRTGEGKTLTATLPAYLNALTGKGVHVVTVNDYLAQRDAENNRPLFEFLGLTVGINLPGMPAPAKREAYAADITYGTNNEYGFDYLRDNMAFSPEERVQRKLHYALVDEVDSILIDEARTPLIISGPAEDSSEMYKRVNKIIPHLIRQEKEDSETFQGEGHFSVDEKSRQVNLTERGLVLIEELLVKEGIMDEGESLYSPANIMLMHHVTAALRAHALFTRDVDYIVKDGEVIIVDEHTGRTMQGRRWSDGLHQAVEAKEGVQIQNENQTLASITFQNYFRLYEKLAGMTGTADTEAFEFSSIYKLDTVVVPTNRPMIRKDLPDLVYMTEAEKIQAIIEDIKERTAKGQPVLVGTISIEKSELVSNELTKAGIKHNVLNAKFHANEAAIVAQAGYPAAVTIATNMAGRGTDIVLGGSWQAEVAALENPTAEQIEKIKADWQVRHDAVLEAGGLHIIGTERHESRRIDNQLRGRSGRQGDAGSSRFYLSMEDALMRIFASDRVSGMMRKLGMKPGEAIEHPWVTKAIANAQRKVESRNFDIRKQLLEYDDVANDQRRAIYSQRNELLDVSDVSETINSIREDVFKATIDAYIPPQSLEEMWDIPGLQERLKNDFDLDLPIAEWLDKEPELHEETLRERILAQSIEVYQRKEEVVGAEMMRHFEKGVMLQTLDSLWKEHLAAMDYLRQGIHLRGYAQKDPKQEYKRESFSMFAAMLESLKYEVISTLSKVQVRMPE
notes: SecA, E. coli, first 14 N-terminal residues removed, truncated at residue 835; also called SecA-N95∆N; SecA-N95ΔN14
B3: H6-SecA-N68 (domain or fragment, E. coli, UniProt P10408 6-610, looked up)
chain: LTKVFGSRNDRTLRRMRKVVNIINAMEPEMEKLSDEELKGKTAEFRARLEKGEVLENLIPEAFAVVREASKRVFGMRHFDVQLLGGMVLNERCIAEMRTGEGKTLTATLPAYLNALTGKGVHVVTVNDYLAQRDAENNRPLFEFLGLTVGINLPGMPAPAKREAYAADITYGTNNEYGFDYLRDNMAFSPEERVQRKLHYALVDEVDSILIDEARTPLIISGPAEDSSEMYKRVNKIIPHLIRQEKEDSETFQGEGHFSVDEKSRQVNLTERGLVLIEELLVKEGIMDEGESLYSPANIMLMHHVTAALRAHALFTRDVDYIVKDGEVIIVDEHTGRTMQGRRWSDGLHQAVEAKEGVQIQNENQTLASITFQNYFRLYEKLAGMTGTADTEAFEFSSIYKLDTVVVPTNRPMIRKDLPDLVYMTEAEKIQAIIEDIKERTAKGQPVLVGTISIEKSELVSNELTKAGIKHNVLNAKFHANEAAIVAQAGYPAAVTIATNMAGRGTDIVLGGSWQAEVAALENPTAEQIEKIKADWQVRHDAVLEAGGLHIIGTERHESRRIDNQLRGRSGRQGDAGSSRFYLSMEDALMRIFASDRVSGMMRKL
notes: SecA, E. coli, residues 6 to 610; lacks the C-terminal helical domains; The tag MHHHHHH stands in place of the first residues of SecA and was not removed; also called His6-SecA-N68; N-terminal histidine-tagged version of SecA-N68; not shown: His6 (MHHHHHH), N-terminal, kept
B4: SecA-N68 with a wild-type N-terminus (domain or fragment, E. coli, UniProt P10408 1-610, looked up)
chain: MLIKLLTKVFGSRNDRTLRRMRKVVNIINAMEPEMEKLSDEELKGKTAEFRARLEKGEVLENLIPEAFAVVREASKRVFGMRHFDVQLLGGMVLNERCIAEMRTGEGKTLTATLPAYLNALTGKGVHVVTVNDYLAQRDAENNRPLFEFLGLTVGINLPGMPAPAKREAYAADITYGTNNEYGFDYLRDNMAFSPEERVQRKLHYALVDEVDSILIDEARTPLIISGPAEDSSEMYKRVNKIIPHLIRQEKEDSETFQGEGHFSVDEKSRQVNLTERGLVLIEELLVKEGIMDEGESLYSPANIMLMHHVTAALRAHALFTRDVDYIVKDGEVIIVDEHTGRTMQGRRWSDGLHQAVEAKEGVQIQNENQTLASITFQNYFRLYEKLAGMTGTADTEAFEFSSIYKLDTVVVPTNRPMIRKDLPDLVYMTEAEKIQAIIEDIKERTAKGQPVLVGTISIEKSELVSNELTKAGIKHNVLNAKFHANEAAIVAQAGYPAAVTIATNMAGRGTDIVLGGSWQAEVAALENPTAEQIEKIKADWQVRHDAVLEAGGLHIIGTERHESRRIDNQLRGRSGRQGDAGSSRFYLSMEDALMRIFASDRVSGMMRKL
notes: NBD1, PPXD and NBD2 with the unstructured N- and C-termini

Legend:
[1] = target: SecA-N68∆N (E. coli) (UniProt P10408); assay: AUC; sedimentation velocity, 20 °C, 50 mM Tris-HCl pH 7.5, 100 mM KCl, 2 mM EDTA, 5 mM MgCl2, 5 mM TCEP-HCl; SedFit analysis at a range of concentrations
[2] = target: SecA-N68∆C (E. coli) (UniProt P10408); assay: as above
[3] = target: the molecule itself; assay: as above
[4] = target: the molecule itself; assay: AUC; sedimentation equilibrium, 20 °C, 50 mM Tris-HCl pH 7.5, 100 mM KCl, 2 mM EDTA, 5 mM MgCl2; global fit of nine curves at three rotor speeds; dimer to monomers
[5] = target: the molecule itself; assay: SEC; analytical gel filtration, Superdex 200 HR 10/30, 50 mM Tris-HCl pH 7.5, 100 mM KCl, 1 mM EDTA, 5 mM MgCl2, 5 mM β-mercaptoethanol, room temperature; H6-SecA-N68 applied at up to 4 mg/mL, SecA-N68∆NC at 10 mg/mL

Molecule | stoichiometry N [3] | Kd [4] [µM] | other results
SecA-N68∆N (from UniProt P10408 15-610) (domain or fragment) | – | – | relative amount of the dimer at 4 mg/mL [1]: 50%; stoichiometry N [1]: 2
SecA-N68∆C (from UniProt P10408 1-590) (domain or fragment) | – | – | stoichiometry N [2]: 2
B1 | 2 | < 1 | –
B2 | 2 | 24.5 | –
B3 | – | – | binding result [5]: binds
B4 | 2 and 4 | – | –
